In patent US8043804 (TRUSTEES OF COLUMBIA UNIVERSITY IN THE CITY OF NEW YORK, dated 2011):
Blank lines part the entries; values can stand above or below the binder they belong to.

What was measured:
[1] = molecular target: T1, DBC1 (Deleted in Breast Cancer 1) protein (human, UniProt Q8N163 1-923); assay: M2 immunoprecipitation of Flag-tagged SIRT family members from 293 cells, Western blot (FIG. 2d)
T1 construct: Endogenous protein of HeLa, U2OS and 293 cells (about 140 kDa band), or expressed from a vector without a stated tag in H1299 cells; also called endogenous DBC1
T1 sequence (Q8N163 whole entry): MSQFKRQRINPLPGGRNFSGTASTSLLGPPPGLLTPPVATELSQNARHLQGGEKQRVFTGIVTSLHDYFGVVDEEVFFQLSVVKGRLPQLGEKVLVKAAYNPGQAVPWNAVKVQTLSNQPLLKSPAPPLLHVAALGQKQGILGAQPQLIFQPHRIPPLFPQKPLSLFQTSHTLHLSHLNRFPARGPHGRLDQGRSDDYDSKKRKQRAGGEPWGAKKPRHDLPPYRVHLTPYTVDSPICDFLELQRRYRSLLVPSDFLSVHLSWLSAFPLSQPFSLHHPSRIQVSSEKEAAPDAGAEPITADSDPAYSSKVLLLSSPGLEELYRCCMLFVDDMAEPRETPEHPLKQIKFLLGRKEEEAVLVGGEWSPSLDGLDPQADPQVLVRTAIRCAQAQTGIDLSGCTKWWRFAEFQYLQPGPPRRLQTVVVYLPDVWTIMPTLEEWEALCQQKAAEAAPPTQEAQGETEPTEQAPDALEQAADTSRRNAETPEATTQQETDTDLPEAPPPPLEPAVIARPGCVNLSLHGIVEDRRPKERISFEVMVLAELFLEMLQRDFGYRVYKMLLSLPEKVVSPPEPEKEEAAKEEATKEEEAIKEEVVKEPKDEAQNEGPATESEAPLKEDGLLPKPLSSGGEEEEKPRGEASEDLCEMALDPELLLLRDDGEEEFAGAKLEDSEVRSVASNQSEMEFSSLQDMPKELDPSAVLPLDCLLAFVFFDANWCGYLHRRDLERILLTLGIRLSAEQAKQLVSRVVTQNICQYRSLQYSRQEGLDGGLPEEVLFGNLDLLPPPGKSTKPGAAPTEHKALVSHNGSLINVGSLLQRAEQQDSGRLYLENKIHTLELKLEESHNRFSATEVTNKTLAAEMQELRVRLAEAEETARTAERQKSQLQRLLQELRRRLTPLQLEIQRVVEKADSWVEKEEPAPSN
Description: (§1) Next, whether SIRT1 binds DBC1 in vitro was tested. […] The N-terminus of DBC1 as the SIRT1 binding domain was identified (FIG. 7). Since the enzymatic core sequence represents the most conserved region of mammalian SIRT protein family, whether DBC1 interacts with other members of this family was determined. Flag-tagged derivatives of the seven human SIRT polypeptides (SIRT1-7) were each expressed in 293 cells and extracts of the transfected cells were immunoprecipitated with the α-Flag antibody. […] Although similar expression levels for all seven Flag-SIRT polypeptides were detected, none of the other SIRT proteins (SIRT2, SIRT3, SIRT4, SIRT5, SIRT6 and SIRT7) were able to co-immunoprecipitate DBC1 (lanes 3-8, FIG. 2d).

[2] = molecular target: T2, SIRT1 (Silencing mating type information regulator 2 homolog) (human, UniProt Q96EB6 2-747); assay: affinity-purified SIRT1 complexes from HeLa extracts, Western blot
T2 construct: Endogenous protein of HeLa and U2OS cells, or expressed from a vector without a stated tag in H1299 cells; also called endogenous SIRT1; Sir2
T2 sequence (looked up): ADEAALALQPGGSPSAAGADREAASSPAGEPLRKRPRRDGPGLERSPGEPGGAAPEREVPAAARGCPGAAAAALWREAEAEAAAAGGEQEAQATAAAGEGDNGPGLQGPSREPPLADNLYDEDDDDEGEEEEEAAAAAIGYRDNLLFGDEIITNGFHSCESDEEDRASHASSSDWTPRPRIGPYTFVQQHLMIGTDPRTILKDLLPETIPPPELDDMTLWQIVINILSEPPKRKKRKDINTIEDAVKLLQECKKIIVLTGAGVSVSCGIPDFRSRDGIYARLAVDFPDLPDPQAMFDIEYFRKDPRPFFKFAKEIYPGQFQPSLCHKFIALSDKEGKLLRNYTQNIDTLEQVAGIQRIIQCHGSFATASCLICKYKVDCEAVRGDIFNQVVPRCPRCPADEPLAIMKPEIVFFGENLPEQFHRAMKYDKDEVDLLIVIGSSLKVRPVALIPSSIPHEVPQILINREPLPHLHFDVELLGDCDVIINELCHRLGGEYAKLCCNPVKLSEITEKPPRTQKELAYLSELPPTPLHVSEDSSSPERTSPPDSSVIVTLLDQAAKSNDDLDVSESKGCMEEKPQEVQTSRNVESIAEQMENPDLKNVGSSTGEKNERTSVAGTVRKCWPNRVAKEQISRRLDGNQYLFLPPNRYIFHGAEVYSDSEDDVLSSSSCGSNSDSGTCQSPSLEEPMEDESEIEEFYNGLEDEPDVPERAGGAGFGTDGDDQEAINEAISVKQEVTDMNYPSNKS
Description: Figure 1: FIG. 1. Identification of DBC1 as a major component of the SIRT1 complexes in human cells. (a) Colloidal-blue staining of affinity-purified SIRT1 complexes from HeLa extracts with the α-SIRT1 antibody column (lane 2) and a control elute from the same extract with a control antibody column (lane 3). Specific SIRT1 interacting proteins were analyzed by mass spectrometry. (b) Western Blot of input (lane 1), control IP (lane 2) and α-SIRT1 antibody IP (lane 3) for the known SIRT1 interacting protein 14-3-3σ (lower panel) and SIRT1 (upper panel) to verify specificity of the analyzed SIRT1 complex. (c) Schematic representation of the DBC1 protein.

[3] = molecular target: T1, DBC1 (Deleted in Breast Cancer 1) …; assay: anti-Flag immunoprecipitation from transfected 293 cells, Western blot for endogenous DBC1
Description: as §1

[4] = molecular target: T3, ^35S-labeled in vitro-translated DBC1 (human, UniProt Q8N163 1-923, labelled by incorporation of ^35S-Methionine); assay: GST pull-down, autoradiography
T3 construct: also called ^35S-DBC1; pCIN4-DBC1 product
T3 sequence (Q8N163 whole entry): as the sequence (Q8N163 whole entry) above
Description: as §1

B1: Flag-SIRT1 (enzyme, human, UniProt Q96EB6 1-747, looked up)
chain: MADEAALALQPGGSPSAAGADREAASSPAGEPLRKRPRRDGPGLERSPGEPGGAAPEREVPAAARGCPGAAAAALWREAEAEAAAAGGEQEAQATAAAGEGDNGPGLQGPSREPPLADNLYDEDDDDEGEEEEEAAAAAIGYRDNLLFGDEIITNGFHSCESDEEDRASHASSSDWTPRPRIGPYTFVQQHLMIGTDPRTILKDLLPETIPPPELDDMTLWQIVINILSEPPKRKKRKDINTIEDAVKLLQECKKIIVLTGAGVSVSCGIPDFRSRDGIYARLAVDFPDLPDPQAMFDIEYFRKDPRPFFKFAKEIYPGQFQPSLCHKFIALSDKEGKLLRNYTQNIDTLEQVAGIQRIIQCHGSFATASCLICKYKVDCEAVRGDIFNQVVPRCPRCPADEPLAIMKPEIVFFGENLPEQFHRAMKYDKDEVDLLIVIGSSLKVRPVALIPSSIPHEVPQILINREPLPHLHFDVELLGDCDVIINELCHRLGGEYAKLCCNPVKLSEITEKPPRTQKELAYLSELPPTPLHVSEDSSSPERTSPPDSSVIVTLLDQAAKSNDDLDVSESKGCMEEKPQEVQTSRNVESIAEQMENPDLKNVGSSTGEKNERTSVAGTVRKCWPNRVAKEQISRRLDGNQYLFLPPNRYIFHGAEVYSDSEDDVLSSSSCGSNSDSGTCQSPSLEEPMEDESEIEEFYNGLEDEPDVPERAGGAGFGTDGDDQEAINEAISVKQEVTDMNYPSNKS
notes: Expressed in 293 or H1299 cells, immunoprecipitated with M2 anti-Flag beads; also called F-SIRT1; Flag-tagged SIRT1; not shown: Flag tag
- binding result [1]: binds

B2: 14-3-3σ (other, human, UniProt P31947 1-248, looked up)
chain: MERASLIQKAKLAEQAERYEDMAAFMKGAVEKGEELSCEERNLLSVAYKNVVGGQRAAWRVLSSIEQKSNEEGSEEKGPEVREYREKVETELQGVCDTVLGLLDSHLIKEAGDAESRVFYLKMKGDYYRYLAEVATGDDKKRIIDSARSAYQEAMDISKKEMPPTNPIRLGLALNFSVFHYEIANSPEEAISLAKTTFDEAMADLHTLSEDSYKDSTLIMQLLRDNLTLWTADNAGEEGGEAPQEPQS
- binding result [2]: binds

B3: Flag-SIRT2 (enzyme, human, UniProt Q8IXJ6 1-389, looked up)
chain: MAEPDPSHPLETQAGKVQEAQDSDSDSEGGAAGGEADMDFLRNLFSQTLSLGSQKERLLDELTLEGVARYMQSERCRRVICLVGAGISTSAGIPDFRSPSTGLYDNLEKYHLPYPEAIFEISYFKKHPEPFFALAKELYPGQFKPTICHYFMRLLKDKGLLLRCYTQNIDTLERIAGLEQEDLVEAHGTFYTSHCVSASCRHEYPLSWMKEKIFSEVTPKCEDCQSLVKPDIVFFGESLPARFFSCMQSDFLKVDLLLVMGTSLQVQPFASLISKAPLSTPRLLINKEKAGQSDPFLGMIMGLGGGMDFDSKKAYRDVAWLGECDQGCLALAELLGWKKELEDLVRREHASIDAQSGAGVPNPSTSASPKKSPPPAKDEARTTEREKPQ
notes: also called F-SIRT2; not shown: Flag tag
- binding result [3]: no binding

B4: Flag-SIRT7 (enzyme, human, UniProt Q9NRC8 1-400, looked up)
chain: MAAGGLSRSERKAAERVRRLREEQQRERLRQVSRILRKAAAERSAEEGRLLAESADLVTELQGRSRRREGLKRRQEEVCDDPEELRGKVRELASAVRNAKYLVVYTGAGISTAASIPDYRGPNGVWTLLQKGRSVSAADLSEAEPTLTHMSITRLHEQKLVQHVVSQNCDGLHLRSGLPRTAISELHGNMYIEVCTSCVPNREYVRVFDVTERTALHRHQTGRTCHKCGTQLRDTIVHFGERGTLGQPLNWEAATEAASRADTILCLGSSLKVLKKYPRLWCMTKPPSRRPKLYIVNLQWTPKDDWAALKLHGKCDDVMRLLMAELGLEIPAYSRWQDPIFSLATPLRAGEEGSHSRKSLCRSREEAPPGDRGAPLSSAPILGGWFGRGCTKRTKRKKVT
notes: not shown: Flag tag
- binding result [3]: no binding

The next lines start with the values.

- binding result [4]: no binding
B5: GST-SIRT1-CT (other, human, UniProt Q96EB6 500-747, looked up)
chain: LCCNPVKLSEITEKPPRTQKELAYLSELPPTPLHVSEDSSSPERTSPPDSSVIVTLLDQAAKSNDDLDVSESKGCMEEKPQEVQTSRNVESIAEQMENPDLKNVGSSTGEKNERTSVAGTVRKCWPNRVAKEQISRRLDGNQYLFLPPNRYIFHGAEVYSDSEDDVLSSSSCGSNSDSGTCQSPSLEEPMEDESEIEEFYNGLEDEPDVPERAGGAGFGTDGDDQEAINEAISVKQEVTDMNYPSNKS
notes: domain: C-terminal; also called C-terminus of SIRT1; C-terminal domain of SIRT1; not shown: glutathione S-transferase (GST) fusion partner

- binding result [4]: no binding
B6: GST-SIRT1-NT (other, human, UniProt Q96EB6 1-210, looked up)
chain: MADEAALALQPGGSPSAAGADREAASSPAGEPLRKRPRRDGPGLERSPGEPGGAAPEREVPAAARGCPGAAAAALWREAEAEAAAAGGEQEAQATAAAGEGDNGPGLQGPSREPPLADNLYDEDDDDEGEEEEEAAAAAIGYRDNLLFGDEIITNGFHSCESDEEDRASHASSSDWTPRPRIGPYTFVQQHLMIGTDPRTILKDLLPETI
notes: domain: N-terminal; also called N-terminus of SIRT1; N-terminal domain of SIRT1; not shown: glutathione S-transferase (GST) fusion partner
